Kd data for 15 molecules are collected here from US11597760 (dated 2023).

B1: 305LO20-SG422 (antibody, V domains shown)
VH: QVQLVESGGGLVQPGGSLRLSCAASGFTVHSSYYMAWVRQAPGKGLEWVGAIFTGSGAEYKAEWAKGRVTISKDTSKNQVVLTMTNMDPVDTATYYCASDAGYDYPTHAMHYWGQGTLVTVSS
VL: DIQMTQSPSSLSASVGDRVTITCRASQGISSSLAWYQQKPGQAPRLLIYGASETESGVPSRFSGSGSGTDFTLTISSLQPEDFATYYCQNTKVGSSYGNTFGGGTKVEIK
B2: 305LO23-SG115 (antibody, V domains shown)
VH: B1 VH with G50S, A51G, E59T
VL: B1 VL with E53T, E55Q
B3: 305LO20-SG115 (antibody, V domains shown)
VH: B1 VH
VL: B1 VL
B4: 305LO16-SG422 (antibody, V domains shown)
VH: QVQLVESGGGLVQPGRSLRLSCAASGFTVHSSYYMAWVRQAPGKGLEWVGAIFTGSGAEYKAEWVKGRFTISRDNSKNTLYLQMNSLRAEDTAVYYCASDAGYDYPTHAMHYWGRGTLVTVSS
VL: B1 VL with Q42K, R45K
B5: CFA0672 (antibody, V domains shown)
VH: QSVEESGGRLVTPGTPLTLTCTASGFSLSGNAINWVRQAPGKGLEWIGCIYTGSDTTYYATWAKGRFTISKTSTTVDLKIASPTTEDTATYFCARGSGLWGPGTLVTVSS
VL: DVVMTQTPASVSAPVGGTVTIKCQASQNIYSLLAWYQQKPGQPPKLLIYHTSDLASGVPSRFRGSGSGTEFTLTISDLECADAATYYCQCTAYGSSDVGGTFGGGTTVVVE
B6: CFA0330 (antibody, V domains shown)
VH: QSLEESGGDLVEPGASLTLTCTASGFSWNSGYDMCWVRQAPGKGLEWIACIYTGSSANTAYANWAKGRFTISKTSSTTVTLQMTGLTAADTATYFCARHDDYFFDLWGPGTLVTVSS
VL: DVVMTQTPASVSESVGGTVTINCQASQSIGNNLAWYQQKPGQPPKLLIYDASNLASGVPSRFKGSRSGTEPTLTNTLTISGVQCADVATYYCQSGWYGNSYVAAFGGGTEVVVK
B7: CFA0538 (antibody, V domains shown)
VH: QSVEESGGRLVTPGTPLTLTCTASGFSLSSYYMNWVRQAPGKGLEWIGMIYGSGATYYASWAKGRFTISKTSSTTVDLKMTSLTTEDTATYFCARQIYSGDNNDNFWGPGTLVTVSS
VL: AYDMTQTPASVEVAVGGTVTINCQASESISNWLAWYQQKPGQRPKLLIYRASTLASGVSSRFKGSGSGTQFTLTISGVECDDAATYYCQQDYSSSNVDNTFGGGTTVVVE
B8: CFA0501 (antibody, V domains shown)
VH: B7 VH
VL: B7 VL with T106K
B9: CFA0666 (antibody, V domains shown)
VH: QSVEESGGRLVTPGTPLTLTCTVSGFSLSTYAMGWVRQAPGKGLEWIGTIDTGDNSFYANWAKGRFTISKTSTTVDLKITSPTAEDTATYFCARNDGSVYNLFNLWGPGTLVTVSS
VL: DVVMTQTPASVSAAVGGTVTIKCQASENIYSALSWYQQKPGLRPRLLIYYASTLASGVPSRFKGSRSGTEFTLTISDLECADAATYYCQQYYDINSVDNTFGGGTKVVVE
B10: CFA0675 (antibody, V domains shown)
VH: B9 VH with K70R
VL: B9 VL with T85S
B11: CFA0599 (antibody, V domains shown)
VH: QSVEESGGRLVTPGTPLTLTCTVSGLSLSDNTMTWVRQAPGKGLEWIGIISFGGDAYYASWAKGRFPISKTSTTVDLRITSPTTEDTATYFCARVGAGNIFWYFDLWGPGTLVTVSS
VL: AYDMTQTPASVEVSVGGTVTIKCQASESIYSALAWYQQKPGQPPKLLIYSASTLASGVPSRFKGSGSGTEYTLTISDLECADAATYYCQQYYSSTNVHNSFGGGTTVVVE
B12: CFA0366 (antibody, V domains shown)
VH: QSLEESGGDLVKPGASLSLTCTAAGLDFSSSYYMCWVRQAPGKGLEWIACIYAGSSGIIYYANWAKGRFTISRPSSTTVTLQMTSLTAADTATYFCATYPTYGDGGHAFNLWGPGTLVTVSS
VL: AQVLTQTPSSVSAAVGGTVTINCQSSQSVYSSDYLSWYQQKPGQPPKLLIYEASKLASGVPPRFSGSGSGTQFTLTISGVQCDDAATYYCQGTYYSSGWYFAFGGGTEVVVK
B13: CFA0341 (antibody, V domains shown)
VH: QSVEESGGRLVTPGTPLTLTCTVSGIDLSSYTMGWVRQAPGKGLECIGYIHSFGSTYYASWAKGRFTISKTSTTVDLEITSPTTEDTATYFCARDVGGSSGWDLWGQGTLVTVSS
VL: DVVMTQTPSSVSAAVGGTVTIKCQASENIYSNLAWYQQKPGQPPKRLIYDASDLASGVPSRFSGSGYGTQFTLTISGVQCEDAATYYCQANYDSTSSSFGNVFGGGTEVVVK
B14: CFA0307 (antibody, V domains shown)
VH: QSLEESGGGLVKPGASLTLTCKASGIDFSNFYYICWVRQAPGKGLDLIACIYTVSGYTYYASWAKGRLTISKTSSTTVTLQMTSLTAADTATYFCARDLHAGITNLWGPGTLVTVSS
VL: AIEMTQTPFSVSAAVGGTVTIKCQASQNIYSNLAWYQQKPGQRPKLLIYGASNLESGVPSRFKGSGSGTEYTLTISDLECADAATYYCLQGYSYSNVDDAFGGGTEVVVK
B15: 305LO5 (antibody, V domains shown)
VH: B1 VH with V29S, M35V, F53Y, E59T, E63S, V69F, A101G
VL: B1 VL with I2V, Q3V, R24Q, G28N, S30G, E53K, E55H, F83V, N90S, T100H

Residue numbers refer to the chain shown, from its start.

The first assay deals with human C5 (human). Put plainly: SPR, pH 5.8, 37C.
The Kd is the concentration at which binding is half-saturated. In the case of B1, the Kd amounted to 59.9 nM.

For the molecule B2, the Kd was found to be 64.1 nM.

In turn, B3 gave a dissociation constant Kd of 58.1 nM.

Molecule B4 had a Kd of 79.5 nM.

The next assay deals with human C5 (human). Put plainly: SPR, pH 5.8, 37C. The source holds these as a separate data set.
The molecule B5 yielded a Kd of 138 nM.

As for B6, the Kd was found to be 0.184 nM.

The molecule B7 displayed a Kd of 246 nM.

B8: the Kd came out at 174 nM.

B9 came in with a Kd of 33.3 nM.

B10 registered a Kd of 17 nM.

Take B11: the Kd came out at 82.1 nM.

B12 returned a Kd of 75.2 nM.

In turn, B13 showed a Kd of 0.0595 nM.

Consider B14, for which the Kd worked out at 164 nM.

In turn, B15 had a Kd of 14 nM.

The next assay has as its target human C5 (human). Put plainly: SPR, pH 7.4, 37C. Background: In SPR one partner is held on a chip, and binding of the other changes the refractive index at the surface.
Molecule B1 returned a Kd of 0.349 nM.

B2 returned a Kd of 0.277 nM.

In turn, B3 registered a Kd of 0.324 nM.

Take B4: the Kd amounted to 0.321 nM.

The target of another assay is human C5 (human). In words: SPR, pH 7.4, 37C. This is another data set of the same source.
The molecule B5 gave a Kd of 0.351 nM.

With B6, the Kd turned out to be 0.122 nM.

B7 had a dissociation constant (Kd) of 3.91 nM.

Molecule B8 displayed a Kd of 3.56 nM.

Take B9: the Kd amounted to 1.71 nM.

B10 registered a Kd of 1.08 nM.

In turn, B11 had a Kd of 5.93 nM.

B12 showed a Kd of 8.99 nM.

For the molecule B13, the affinity, expressed as Kd, was 0.155 nM.

B14 registered a Kd of 8.13 nM.

The molecule B15 showed a Kd of 0.471 nM.
